Measured values as given in US20120156198A1 (Hoffmann-La Roche, published 2012).

B1: Mab 1G12 (antibody, V domains shown)
VH: QVQLQQPGAELVKPGASVRMSCKTSDYTFTSNWMHWVKQRPGQGLEWIGTIDPSDSYTYYNQKFKGRATLTVDTSSSTAYMQLSSLTSEDSAVYYCTTSGDYDADRYFDVWGAGTTVTVSS
VL: DIVLTQSPASLGVSLGQRATISCRASKSVSTSGDSYMHWYQQKPGQSPKLLIYLASNLESGVPARFSGSGSGTDFTLNIHPVEEEDAATYYCQQSRELPLSFGAGTKLELK
notes: Monoclonal antibody from immunized NMRI mice; detected with anti-mouse IgG1-PE / anti-mouse IgG; also called F20.1G12; monoclonal antibody 1G12
B2: Mab 2D11 (antibody, V domains shown)
VH: QVQLQQPGAELVKPGASVKMSCKASDYTFTSNWMHWVKQRPGQGLEWIGTIDPSDSYTYYNQKFKGKATLTVDTSSSTAYMHLSSLTSEDSAVYYCTTSGDYDADRYFDVWGAGTTVTVSS
VL: DIVLTQSPASLGVSLGQRATISCRASKSVSTSGDSYMHWYQQKPGQSPKLLIYLASNLESGVPARFSGSGSGTDFTLNIHPVEEEDAATYYCQQSRELPLSFGAGTKLELK
notes: Monoclonal antibody from immunized NMRI mice; detected with anti-mouse IgG1-PE / anti-mouse IgG; also called F20.2D11

Tests used:
[1] = molecular target: T1, recombinant human IL-18Rα Fc chimera (R&D Systems, Cat. No. 816-LR) (human, UniProt Q13478 19-329); test: SPR (BIACORE), 37°C, antibody captured, hIL-18Rα hFc chimera in solution; apparent KD, Langmuir 1:1
T1 construct: Bought protein; also called hIL-18Rα (hFc-chimera R&D-Systems 816-LR); recombinant human IL-18Rα-Fc fusion protein; not shown: human Fc of the commercial chimera
T1 sequence: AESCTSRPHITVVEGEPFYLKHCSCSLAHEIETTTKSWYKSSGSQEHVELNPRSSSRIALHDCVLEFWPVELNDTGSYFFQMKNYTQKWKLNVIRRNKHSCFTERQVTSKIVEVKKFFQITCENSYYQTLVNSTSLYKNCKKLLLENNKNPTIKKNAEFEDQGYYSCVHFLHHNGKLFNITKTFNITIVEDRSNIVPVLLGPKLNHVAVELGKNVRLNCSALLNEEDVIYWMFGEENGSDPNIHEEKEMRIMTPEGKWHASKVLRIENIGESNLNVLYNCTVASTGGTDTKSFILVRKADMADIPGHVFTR
Method: (§1) Coupling: amine coupling Buffer: 1×PBS (10×PBS, Ambion cat. AM9625), pH 7.4, 37° C. […] Association was measured by a hIL-18Rα-injection of 1.5 minutes at 37° C.; dissociation was measured by washing the chip surface with buffer for 10 minutes at 37° C. For calculation of apparent KD and other kinetic parameters the Langmuir 1:1 model was used.

[2] = molecular target: T2, human IL-18Rα (IL-18R1) on human cells (KG-1 cells, PBMC, TH1-cultured T cells, whole blood) (human, UniProt Q13478 19-541); test: cell-based or functional assay
T2 sequence: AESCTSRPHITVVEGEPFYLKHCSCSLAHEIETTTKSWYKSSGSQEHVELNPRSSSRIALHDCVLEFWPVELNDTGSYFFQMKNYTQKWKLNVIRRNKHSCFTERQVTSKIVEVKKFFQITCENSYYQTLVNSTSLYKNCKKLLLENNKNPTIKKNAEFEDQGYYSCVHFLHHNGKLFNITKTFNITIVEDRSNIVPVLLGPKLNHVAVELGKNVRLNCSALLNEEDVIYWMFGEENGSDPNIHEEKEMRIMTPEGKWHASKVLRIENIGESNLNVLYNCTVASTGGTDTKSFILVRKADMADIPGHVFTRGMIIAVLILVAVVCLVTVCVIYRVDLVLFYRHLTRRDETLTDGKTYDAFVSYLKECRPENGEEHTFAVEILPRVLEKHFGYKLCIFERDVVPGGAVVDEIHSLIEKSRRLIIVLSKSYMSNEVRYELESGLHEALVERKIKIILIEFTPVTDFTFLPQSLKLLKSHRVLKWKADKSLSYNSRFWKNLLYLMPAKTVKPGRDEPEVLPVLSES

[3] = molecular target: T1, recombinant human IL-18Rα Fc chimera …; test: SPR (BIACORE), 37°C, antibody captured, hIL-18Rα hFc chimera in solution
Method: as §1

[4] = molecular target: T3, human IL-18Rα/IL-18Rβ on transfected HEK293 cells (human, UniProt O95256 20-599); test: FACS on transfected HEK293 cells, antibody 1 µg/ml
T3 construct: whole, on cells; also called human IL-18Ralpha+IL-18Rβ subunits
T3 sequence 1: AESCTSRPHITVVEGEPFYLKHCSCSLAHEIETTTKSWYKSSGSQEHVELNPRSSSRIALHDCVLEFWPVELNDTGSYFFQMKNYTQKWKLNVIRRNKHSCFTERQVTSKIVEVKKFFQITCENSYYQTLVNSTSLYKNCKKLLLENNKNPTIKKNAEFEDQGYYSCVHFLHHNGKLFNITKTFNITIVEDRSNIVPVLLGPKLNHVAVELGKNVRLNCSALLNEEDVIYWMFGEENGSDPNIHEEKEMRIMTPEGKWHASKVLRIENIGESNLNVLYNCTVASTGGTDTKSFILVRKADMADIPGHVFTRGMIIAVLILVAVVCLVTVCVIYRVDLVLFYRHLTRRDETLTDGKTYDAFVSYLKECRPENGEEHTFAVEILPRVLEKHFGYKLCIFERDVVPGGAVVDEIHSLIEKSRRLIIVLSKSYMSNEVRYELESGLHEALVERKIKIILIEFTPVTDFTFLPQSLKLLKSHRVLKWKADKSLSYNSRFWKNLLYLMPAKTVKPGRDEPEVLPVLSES
T3 sequence 2: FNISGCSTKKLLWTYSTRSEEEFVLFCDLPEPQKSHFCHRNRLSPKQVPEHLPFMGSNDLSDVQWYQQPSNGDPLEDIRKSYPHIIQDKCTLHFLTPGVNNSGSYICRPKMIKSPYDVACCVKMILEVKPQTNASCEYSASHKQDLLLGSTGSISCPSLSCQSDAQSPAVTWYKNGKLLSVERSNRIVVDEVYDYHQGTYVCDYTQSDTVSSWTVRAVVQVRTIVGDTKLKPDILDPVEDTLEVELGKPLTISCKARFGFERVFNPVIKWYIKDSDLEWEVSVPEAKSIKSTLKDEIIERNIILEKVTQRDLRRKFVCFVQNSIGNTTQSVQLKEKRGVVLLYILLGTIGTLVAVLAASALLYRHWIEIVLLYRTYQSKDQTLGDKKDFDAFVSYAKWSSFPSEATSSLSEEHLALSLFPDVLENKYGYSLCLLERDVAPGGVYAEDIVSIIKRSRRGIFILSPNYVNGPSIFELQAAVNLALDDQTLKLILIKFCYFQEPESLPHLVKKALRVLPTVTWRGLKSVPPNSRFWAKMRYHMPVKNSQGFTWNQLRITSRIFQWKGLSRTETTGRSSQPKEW
Method: 10⁶ HEK293 cells were transfected with a plasmid expressing human IL-18Ralpha+IL-18Rβ. Transfected cells were incubated for 1 day. 1×10⁵ cells were incubated on ice in PBS-buffer+2% FCS and stained with an IL-18Rα antibody (1 μg/ml). As secondary antibody anti-mouse IgG1-PE from R&D Systems (F0102B) was added in 1:20 dilution and as isotype control mouse IgG1 from BD Pharmingen (557273) was used at a concentration of 1 μg/ml.

[5] = molecular target: T2, human IL-18Rα (IL-18R1) on human cells …; test: cell-based or functional assay; remark: listed apart in the source

Binder	Kd [1]	IL-18 induced IFNγ production by human KG-1 cells, IC50 [pM] [2]	koff [3]	kon [3]	t1/2 [3]	binding result [4]	IL-18 induced IFNγ production in human PBMC, IC50 [ng/ml] [5]
B1	0.027 nM	27 pM	0.0002 s⁻¹	8.2e+06 M⁻¹ s⁻¹	0.967 h	binds	0.76 ng/mL
B2	0.027 nM	43 pM	0.00019 s⁻¹	7e+06 M⁻¹ s⁻¹	1.03 h	binds	1.71 ng/mL
